Legend:
[1] = test system: ovarian cancer cell line (PA-1); experiment: Cytotoxicity assay, cell titer glow luminescence, 72 h; format: cell-based; details: for activity against PA-1 cell lines (in words): IC50 values in nanomoles
Experimental: (§1) T-24 Cell line were cultured in McCoy's 5a Medium Modified supplemented with 10% FBS and the PA-1 Cell line was cultured in EMEM Media supplemented with 10% FBS. The assay was performed by plating 5,000 cells/well and incubated at 37° C. overnight. […] Each concentration was added in triplicate and media-only wells used as a control. After incubation for 72 h cell titer glow (Promega) reagent (50 μL) was added to each well and the plates shaken for 5 mins and the luminescence was recorded. Percent viability was determined by dividing luminescence of the treated well by the non-treated well and multiplying by 100. Data was analysed using non-linear regression with a logarithmic scale.
(§2) 5,000 cells/well were plated and incubated at 37° C. overnight. Conjugates/vehicle control dilutions were made in respective media and added to cells. Volume added: 50 uL to each well. Starting treatment concentration was 1 uM for Conjugate of formula 16 and 18, and control SEQ ID NO: 5 alone and 10% for vehicle control (1×PBS with 20% DMA) and then diluted 10-fold down for a total of 11 treatment dilutions. Each concentration was analysed in triplicates. Media-only wells was used as a control to calculate percent viability. Cell titer glow reagent (volume: 50 uL) was added to each well, the plate was shaken for 5 mins and the luminescence was recorded. Drug Treatment Time: 72 hours. Percent viability was calculated by dividing the luminescence signal obtained for each treated well by the untreated well (media-only control) and multiplying by 100.

[2] = test system: human urinary bladder cancer cell line (T-24); experiment: as above; format: cell-based
Experimental: as §1, §2

B1: Formula 19: Recombinant lectin of SEQ ID NO 2 (via Formula C) conjugated with Tesirine, DAR 1.32 (conjugate)
chain: TYKITVRVYQTNPDAFFHPVEKTVWKYANGGTWTITDDQHVLTMGGSGTSGTLRFHADNGESFTATFGVHNYKRWCDIVTNLAADETGMVINQQYYSQKNREEARERQLSNYQVKNAKGRNFQIVYTEAEGNDLHANLIIG
modifications: Tesirine conjugate via Formula C linker
B1 was tested, and the IC50 ([1]; 72 h) was 5.22 nM, the IC50 ([1]; 72 h, listed as formula 19) was 5.22 nM and the “activity against PA-1 cell lines (in words)” value [1] was “potent activity”.

B2: Formula 18: Recombinant lectin of SEQ ID NO 5 conjugated with Tesirine, DAR 1.05 (conjugate)
chain: SYKITVRVYQTNPDAFFHPVEKTVWKYANGGTWTITDDQHVLTMGGSGTSGTLRFHADNGESFTATFGVHNYKRWGDIVTNLAADETGMVINQQYYSQKNREEARERQLSNYQVKNAKGRNFQIVYTEAEGNDLHANLIIGC
modifications: Tesirine conjugate
For B2, the IC50 ([2]; 72 h) was 19.9 nM, the “activity against T-24 cell lines (in words)” value ([2]; IC50 values in nanomoles) was “potent activity” and the IC50 ([1]; 72 h) was 1.04 nM. The “activity against PA-1 cell lines (in words)” value [1] was “potent activity”.

B3: SEQ ID NO: 5: recombinant S. rolfsii lectin variant with T1S, C76G and cysteine added at C terminal end (protein)
chain: B2 chain
modifications: C-terminal cysteine added
notes: recombinant S. rolfsii lectin variant with T1S, C76G and cysteine added at C terminal end
B3 was tested, and the “cytotoxic effects below 10 μM concentration” value ([2]; below 10 μM) was “does not exhibit major cytotoxic effects”, the “IC50 values, PA-1 Cell line” value ([1]; 72 h) was 16 µg/mL and the “cytotoxic effects below 10 μM concentration” value ([1]; below 10 μM) was “does not exhibit major cytotoxic effects”.

— US20250302974A1, “LECTIN-DRUG CONJUGATES” (UNICHEM LABORATORIES LIMITED, priority 2021, published 2025)
